# Assays:
# [1] = target: the molecule itself; test: MALDI-TOF mass spectrometry; C4 ZipTip purified samples, DHAP matrix, linear positive mode; zymogen and mature forms; shows only the covalent (disulphide) dimer
# [2] = target: the molecule itself; test: electron microscopy (cryo-TEM, 120 kV); inspection of particles of the purified variants
Protein,stoichiometry N [1],stoichiometry N [2]
"meprin α, active (mature) form, wild type (enzyme, human (from the printed accession), UniProt Q16819 22-600, looked up, N-linked glycosylations (sites not given in the text), meprin α construct V22-S600 of uniprot Q16819 after removal of the pro-peptide by trypsin; also called active state) NGLRDPNTRWTFPIPYILADNLGLNAKGAILYAFEMFRLKSCVDFKPYEGESSYIIFQQFDGCWSEVGDQHVGQNISIGQGCAYKAIIEHEILHALGFYHEQSRTDRDDYVNIWWDQILSGYQHNFDTYDDSLITDLNTPYDYESLMHYQPFSFNKNASVPTITAKIPEFNSIIGQRLDFSAIDLERLNRMYNCTTTHTLLDHCTFEKANICGMIQGTRDDTDWAHQDSAQAGEVDHTLLGQCTGAGYFMQFSTSSGSAEEAALLESRILYPKRKQQCLQFFYKMTGSPSDRLVVWVRRDDSTGNVRKLVKVQTFQGDDDHNWKIAHVVLKEEQKFRYLFQGTKGDPQNSTGGIYLDDITLTETPCPTGVWTVRNFSQVLENTSKGDKLQSPRFYNSEGYGFGVTLYPNSRESSGYLRLAFHVCSGENDAILEWPVENRQVIITILDQEPDVRNRMSSSMVFTTSKSHTSPAINDTVIWDRPSRVGTYHTDCNCFRSIDLGWSGFISHQMLKRRSFLKNDDLIIFVDFEDITHLS",2,
"pro-meprin α R372T (enzyme, human (from the printed accession), UniProt Q16819 22-600, looked up, meprin α pro-form V22-S600 of uniprot Q16819 with R372T (removes a salt bridge of the helix interface); SEC-MALS was done on the zymogen (legend S6c); also called Pro-Meprin α variant R372T; source: S2 cells, secreted, purified (HIC-EBA, Strep-Tactin)) VPIKYLPEENVHDADFGEQKDISEINLAAGLDLFQGDILLQKSRNGLRDPNTRWTFPIPYILADNLGLNAKGAILYAFEMFRLKSCVDFKPYEGESSYIIFQQFDGCWSEVGDQHVGQNISIGQGCAYKAIIEHEILHALGFYHEQSRTDRDDYVNIWWDQILSGYQHNFDTYDDSLITDLNTPYDYESLMHYQPFSFNKNASVPTITAKIPEFNSIIGQRLDFSAIDLERLNRMYNCTTTHTLLDHCTFEKANICGMIQGTRDDTDWAHQDSAQAGEVDHTLLGQCTGAGYFMQFSTSSGSAEEAALLESRILYPKRKQQCLQFFYKMTGSPSDRLVVWVRRDDSTGNVTKLVKVQTFQGDDDHNWKIAHVVLKEEQKFRYLFQGTKGDPQNSTGGIYLDDITLTETPCPTGVWTVRNFSQVLENTSKGDKLQSPRFYNSEGYGFGVTLYPNSRESSGYLRLAFHVCSGENDAILEWPVENRQVIITILDQEPDVRNRMSSSMVFTTSKSHTSPAINDTVIWDRPSRVGTYHTDCNCFRSIDLGWSGFISHQMLKRRSFLKNDDLIIFVDFEDITHLS",2,
"pro-meprin α R372A (enzyme, human (from the printed accession), UniProt Q16819 22-600, looked up, meprin α pro-form V22-S600 of uniprot Q16819 with R372A (removes a salt bridge of the helix interface); source: S2 cells, secreted, purified (HIC-EBA, Strep-Tactin)) VPIKYLPEENVHDADFGEQKDISEINLAAGLDLFQGDILLQKSRNGLRDPNTRWTFPIPYILADNLGLNAKGAILYAFEMFRLKSCVDFKPYEGESSYIIFQQFDGCWSEVGDQHVGQNISIGQGCAYKAIIEHEILHALGFYHEQSRTDRDDYVNIWWDQILSGYQHNFDTYDDSLITDLNTPYDYESLMHYQPFSFNKNASVPTITAKIPEFNSIIGQRLDFSAIDLERLNRMYNCTTTHTLLDHCTFEKANICGMIQGTRDDTDWAHQDSAQAGEVDHTLLGQCTGAGYFMQFSTSSGSAEEAALLESRILYPKRKQQCLQFFYKMTGSPSDRLVVWVRRDDSTGNVAKLVKVQTFQGDDDHNWKIAHVVLKEEQKFRYLFQGTKGDPQNSTGGIYLDDITLTETPCPTGVWTVRNFSQVLENTSKGDKLQSPRFYNSEGYGFGVTLYPNSRESSGYLRLAFHVCSGENDAILEWPVENRQVIITILDQEPDVRNRMSSSMVFTTSKSHTSPAINDTVIWDRPSRVGTYHTDCNCFRSIDLGWSGFISHQMLKRRSFLKNDDLIIFVDFEDITHLS",,2
"pro-meprin α (V22-S600), wild type (enzyme, human (from the printed accession), UniProt Q16819 22-600, looked up, N-linked glycosylations (sites not given in the text), meprin α, pro-form without signal peptide, EGF-like domain and transmembrane region; V22-S600 of uniprot Q16819; Cloned into pMT/BiP/V5; Subunits form a disulphide-linked (C308) homodimer; the dimers form helical filaments; also called zymogen; wild type meprin α; source: Schneider-2 Drosophila cells (S2), secreted, purified (HIC-EBA, Strep-Tactin)) VPIKYLPEENVHDADFGEQKDISEINLAAGLDLFQGDILLQKSRNGLRDPNTRWTFPIPYILADNLGLNAKGAILYAFEMFRLKSCVDFKPYEGESSYIIFQQFDGCWSEVGDQHVGQNISIGQGCAYKAIIEHEILHALGFYHEQSRTDRDDYVNIWWDQILSGYQHNFDTYDDSLITDLNTPYDYESLMHYQPFSFNKNASVPTITAKIPEFNSIIGQRLDFSAIDLERLNRMYNCTTTHTLLDHCTFEKANICGMIQGTRDDTDWAHQDSAQAGEVDHTLLGQCTGAGYFMQFSTSSGSAEEAALLESRILYPKRKQQCLQFFYKMTGSPSDRLVVWVRRDDSTGNVRKLVKVQTFQGDDDHNWKIAHVVLKEEQKFRYLFQGTKGDPQNSTGGIYLDDITLTETPCPTGVWTVRNFSQVLENTSKGDKLQSPRFYNSEGYGFGVTLYPNSRESSGYLRLAFHVCSGENDAILEWPVENRQVIITILDQEPDVRNRMSSSMVFTTSKSHTSPAINDTVIWDRPSRVGTYHTDCNCFRSIDLGWSGFISHQMLKRRSFLKNDDLIIFVDFEDITHLS",2,

# Reference: article doi:10.1101/2022.03.13.484121, “Helical ultrastructure of the oncogenic metalloprotease meprin α in complex with a small molecule hydroxamate inhibitor” (bioRxiv, 2022)
